The values below come from publication PMC13588620 (eLife, 2026).

This experiment has as its target T1, recombinant SARS-CoV-2 nucleocapsid protein (Severe acute respiratory syndrome …, UniProt P0DTC9).
T1 construct: SARS-CoV-2 nucleocapsid protein; also called NP; N-protein
Kind of experiment: ELISA; peptide competition ELISA: plate coated with 0.1 ug/ml recombinant SARS-CoV-2 NP overnight at 4°C; 40 μl mBG17 pre-incubated 1 h at room temperature with 40 μg (approximately 30 nMol) of a single peptide fragment, then applied to the plate in triplicate; HRP goat anti-mouse detection; percent of no-peptide control. The settings on record: both partners purified.

B1: mBG17 anti-SARS-CoV-2 nucleocapsid protein mouse monoclonal antibody (recombinant) (antibody, V domains shown)
VH: EVKLEESGGGLVQPGGSMKFSCVASGFTFSDYWMNWVRQSPDKGLEWVAEIRLKSNNYATHYAASVKGRFTISRDDSKSSVYLQMNNLRAEDSGIYYCTRSAMDYWGQGTSVTVSS
VL: DIVMSQSPSSLAVSVGEKITMSCKSSQSLLYTSDQKNYLAWFQQKPGQSPKLLIFWASTRDSGVPDRFTGSGSGTDFTLTISSVKAEDLAVYYCQQFYNYPRTFGGGTKLEI
notes: VH of mBG17; VL of mBG17; also called recombinant mBG17 antibody; source: recombinant antibody produced in 293F cells (as described in Terry et al., 2021)
Take B1: the binding result is given as “binds”.
